From patent US20250042970A1 (AURINIA PHARMACEUTICALS, published 2025) come the findings set out here.

One assay deals with T1, FLAG-tagged human BAFF (human, UniProt Q9Y275 134-285, limits assumed).
T1 construct: used in BIACORE (Ex. 9) and KINEXA (Ex. 11); also called huBAFF
Nature of the assay: BIACORE SPR. The procedure: (§1) For human BAFF, cynomolgus monkey APRIL, and mouse APRIL measurements, mouse monoclonal antibody (IgG1) anti-FLAG M2 (Sigma Aldrich, Cat. No. F1804) was immobilized on CM3 sensor chips (GE Healthcare, Cat. No. BR-1005-41) according to the manufacturer's protocol. Antibody was diluted to 30 μg/ml in immobilization buffer (10 mM pH 5±0.20; GE Healthcare; GE Healthcare, Catalog No. BR-1003-51). […] Unreacted sites were quenched with 35 μl of 1M ethanolamine-HCl, pH 8.5 (GE Healthcare, GE Healthcare, Cat. No. BR-1000-50). This procedure typically yielded 3,000-4,000 response units (RU) of coupled antibody.
(§2) The fusion polypeptides were diluted in HBS-EP buffer and flowed over ligand-coated sensor chips. The variant BCMA-Ig and surrogate control fusion proteins were injected at three concentrations (1.5 nM, 15 nM, and 150 nM at 30 μl/min for 2 minutes per association phase) in a single binding cycle, followed by a 20 minute incubation with HBS-EP buffer containing no protein at the same flow rate. A similar protocol was followed for Z-TACI-Ig, except that the injections were at 4.5 nM, 45 nM, and 450 nM.
(§3) Sequence optimization involved generating revertants from the variant BCMA ECD-Ig molecules using standard site-directed mutagenesis methods such as by SOEing as described herein above. Single as well as multiple revertants from twelve different variant-BCMA-pIg18 were generated, cloned in the pcDNA3.1 vector (Life Technologies, as described in Example 6), expressed and purified as described in Examples 6-8. The resulting proteins were assayed for their binding characteristics using Surface Plasmon Resonance as described in Example 9.
A general note: In SPR one partner is held on a chip, and binding of the other changes the refractive index at the surface.

Assay [1] concerns the target T2, FLAG-tagged cynomolgous APRIL (cynomolgus monkey, UniProt A0ACM8R0G4 110-250 (rhesus entry)).
T2 construct: FLAG-tagged, expressed with TPA signal peptide; also called cyAPRIL
T2 sequence: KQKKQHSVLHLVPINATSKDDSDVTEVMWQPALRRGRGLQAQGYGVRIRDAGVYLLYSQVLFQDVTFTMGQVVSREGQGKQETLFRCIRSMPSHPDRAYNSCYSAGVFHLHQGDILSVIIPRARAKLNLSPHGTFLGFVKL
As to the kind of experiment: BIACORE SPR. The procedure: as §1, §2, §3

B1: Variant 50234224-Ig (Fc fusion, human)
chain: AGQCSQNDYYDHLLRACIPCQLRCSSNNPPLTCQRYCNAGVTNSVKGTNAERKSSVECPPSPAPPVAGPSVFLFPPKPKDTLMISRTPEVTCVVVDVSHEDPEVQFNWYVDGVEVHNAKTKPREEQFNSTFRVVSVLTVVHQDWLNGKEYKCKVSNKGLPAPIEKTISKTKGQPREPQVYTLPPSREEMTKNQVSLTCLVKGFYPSDISVEWESNGQPENNYKTTPPMLDSDGSFFLYSKLTVDKSRWQQGNVFSCSVMHEALHNHYTQKSLSLSPGK
notes: domain: Fc; also called Parent 6
On to B1, for which the “fold improvement over control” value with FLAG-tagged human BAFF came out at 4.2 fold; in assay [1], 0.4 fold.

B2: Variant 50237854-Ig (Fc fusion, human)
chain: AGQCSQNEYFDHLIRACIPCDVRCSSNNPPVTCQRYCNAGVTNSVKGTNAERKSSVECPPSPAPPVAGPSVFLFPPKPKDTLMISRTPEVTCVVVDVSHEDPEVQFNWYVDGVEVHNAKTKPREEQFNSTFRVVSVLTVVHQDWLNGKEYKCKVSNKGLPAPIEKTISKTKGQPREPQVYTLPPSREEMTKNQVSLTCLVKGFYPSDISVEWESNGQPENNYKTTPPMLDSDGSFFLYSKLTVDKSRWQQGNVFSCSVMHEALHNHYTQKSLSLSPGK
notes: domain: Fc; also called Parent 4
B2: the “fold improvement over control” value with FLAG-tagged human BAFF worked out at 5.5 fold; in assay [1], 0.3 fold.

B3: Variant 50237847-Ig (Fc fusion, human)
chain: AGQCSQNEYYDHLLRACVSCHVRCSSNNPPAICQRYCNAGVTNSVKGTNAERKSSVECPPSPAPPVAGPSVFLFPPKPKDTLMISRTPEVTCVVVDVSHEDPEVQFNWYVDGVEVHNAKTKPREEQFNSTFRVVSVLTVVHQDWLNGKEYKCKVSNKGLPAPIEKTISKTKGQPREPQVYTLPPSREEMTKNQVSLTCLVKGFYPSDISVEWESNGQPENNYKTTPPMLDSDGSFFLYSKLTVDKSRWQQGNVFSCSVMHEALHNHYTQKSLSLSPGK
notes: domain: Fc; also called Parent 3
On to B3, for which the “fold improvement over control” value with FLAG-tagged human BAFF turned out to be 7.1 fold; in assay [1], 0.4 fold.

B4: Variant 50238494-Ig (Fc fusion, human)
chain: AGQCSQSEYYDRLIHACVPCQLRCSSNNPPATCQRYCNAGVTNSVKGTNAERKSSVECPPSPAPPVAGPSVFLFPPKPKDTLMISRTPEVTCVVVDVSHEDPEVQFNWYVDGVEVHNAKTKPREEQFNSTFRVVSVLTVVHQDWLNGKEYKCKVSNKGLPAPIEKTISKTKGQPREPQVYTLPPSREEMTKNQVSLTCLVKGFYPSDISVEWESNGQPENNYKTTPPMLDSDGSFFLYSKLTVDKSRWQQGNVFSCSVMHEALHNHYTQKSLSLSPGK
notes: domain: Fc; also called Parent 11
Regarding B4, the “fold improvement over control” value with FLAG-tagged human BAFF was found to be 7.6 fold; in assay [1] it was 1.3 fold.

B5: Variant 50238504R-Ig (Fc fusion, human)
chain: AGQCSQNEYYDRLIRACLPCHVRCSSNTPPATCQRYCNAGVTNSVKGTNAERKSSVECPPSPAPPVAGPSVFLFPPKPKDTLMISRTPEVTCVVVDVSHEDPEVQFNWYVDGVEVHNAKTKPREEQFNSTFRVVSVLTVVHQDWLNGKEYKCKVSNKGLPAPIEKTISKTKGQPREPQVYTLPPSREEMTKNQVSLTCLVKGFYPSDISVEWESNGQPENNYKTTPPMLDSDGSFFLYSKLTVDKSRWQQGNVFSCSVMHEALHNHYTQKSLSLSPGK
notes: domain: Fc; also called Parent 8
For B5, the “fold improvement over control” value with FLAG-tagged human BAFF worked out at 4.5 fold; in assay [1], 0.2 fold.

B6: Variant 50237844-Ig (Fc fusion, human)
chain: AGQCSQSEYYDRLIRACIPCQLRCSSNNPPVICQRYCNAGVTNSVKGTNAERKSSVECPPSPAPPVAGPSVFLFPPKPKDTLMISRTPEVTCVVVDVSHEDPEVQFNWYVDGVEVHNAKTKPREEQFNSTFRVVSVLTVVHQDWLNGKEYKCKVSNKGLPAPIEKTISKTKGQPREPQVYTLPPSREEMTKNQVSLTCLVKGFYPSDISVEWESNGQPENNYKTTPPMLDSDGSFFLYSKLTVDKSRWQQGNVFSCSVMHEALHNHYTQKSLSLSPGK
notes: domain: Fc; also called Parent 7
B6: the “fold improvement over control” value in the assay with FLAG-tagged human BAFF stood at 5.5 fold; in assay [1], 0.5 fold.
